Targets include HLA-A*33:01; HLA-A*03:01; HLA-A*31:01; HLA-A*68:01; HLA-A*11:01; HLA-A*30:01.
Common to all, as to assay: IEDB peptide-MHC binding, purified MHC/competitive/radioactivity; ≥ and ≤ were set here for values at or beyond the usual limits of such assays
Settings in all cases: source organism: Homo sapiens

pIC50: −log10 of the molar value. Bounds are passed on as bounds.

For two sequences, IC50 results are on record in the Immune Epitope Database (IEDB).

Broadly, the pIC50 is −log10 of the IC50, conventionally taken in molar units. As for EVYEGVWKK, the pIC50 with HLA-A*33:01 was 7.22; with HLA-A*03:01, 5.97; in the test with HLA-A*31:01, not above 4.15; with HLA-A*68:01, 8.00; in the test with HLA-A*11:01, 7.20; with HLA-A*30:01, not above 4.15.

In the case of KLGGGQYGE, the negative-log IC50 (pIC50) with HLA-A*33:01 was 4.20; in the test with HLA-A*03:01, 5.64; in the test with HLA-A*31:01, 5.01; in the test with HLA-A*68:01 it was 5.38; with HLA-A*11:01, 5.64; in the test with HLA-A*30:01, 5.00.
